± gives the uncertainty stated by the source.
Assay: amyloid nucleation score (Sup35N fusion, yeast selection) (log enrichment); library NNK2; higher = more nucleation; inactive = no reads after selection
Outline: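 For the nucleation score, DiMSum gave the log enrichment of output over input reads, centred on the mode score of non-aggregating sequences. Psi-negative yeast expressing Sup35N fused to peptides of 20 random codons were induced with 100 μM copper sulfate for 24 hours and grown 7 days at 30°C on medium lacking adenine and uracil. Input and output plasmid inserts were Illumina-sequenced, and sequences with under 100 input reads were excluded.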

Going from SFIWKLYMLHWNWRSTEEGE to HFFTQY, the amyloid nucleation score rises from -0.17 ± 0.65 to 2.95 ± 0.1.

YIKASKMPAEA and HYFEIVA are within error of each other in amyloid nucleation score: -0.216 ± 0.55 for the first, -0.315 ± 0.45 for the second.

Going from RIYGILVSFYCIVYDGFSGG to FSDIWPLRP, the amyloid nucleation score falls from 1.9 ± 0.082 to 0.806 ± 0.15.

Going from PICLPVNMLVFKSMNSN to LLRGRFGDSVSAVGFSGFCN, the amyloid nucleation score falls from 2.28 ± 0.073 to -0.502 ± 0.45.

RHMSTVKTLSEGLNLESGLI and FYWHCKGWQRISLGRFIGDC are within error of each other in amyloid nucleation score: -0.519 ± 0.74 for the first, -0.622 ± 0.61 for the second.

Compared with DSQKLAGVVSIKVSVANVLS, SYRNLDKTIRSDKLQVNLGI is lower in amyloid nucleation score: 3.9 ± 0.11 for the first, -1.57 ± 1.1 for the second.

Compared with RYWLLKFNCVLWEISFCRTM, FIADLSDMW is lower in amyloid nucleation score: 5.89 ± 0.07 for the first, -0.916 ± 1.1 for the second.

First: KPDTMNFWVVLALNFDLGRT
Second: LDVPARSMCFY
The amyloid nucleation score of the first is higher: 2.77 ± 0.099 for the first, -0.761 ± 0.61 for the second.

RVNGLKSRVSRVRIGNVS and DRRPNCIFLDGSYRRDV are within error of each other in amyloid nucleation score: 0.224 ± 0.23 for the first, 0.034 ± 1.1 for the second.

Compared with SQISYEWDATIHQWLCKWFW, LTRFMYYLFTDLC is lower in amyloid nucleation score: 8.355 ± 0.031 for the first, -0.813 ± 1.1 for the second.

EYTIFTDLLLYDFKWLEYVW and LEGGGGFSRAL are within error of each other in amyloid nucleation score: 0.561 ± 0.62 for the first, -0.651 ± 1.1 for the second.

PICHLRGGSISRRSNFIQGC and HVFADERMDVGGSITVTARG are within error of each other in amyloid nucleation score: -1.12 ± 0.76 for the first, 0.164 ± 1.1 for the second.

Compared with KTLVKESCCNLNSRSDLWGL, FRCIDFR is higher in amyloid nucleation score: -0.754 ± 0.76 for the first, 0.674 ± 0.65 for the second.

RYGERIFV and NKLTV are within error of each other in amyloid nucleation score: 0.627 ± 0.43 for the first, -0.381 ± 0.79 for the second.

Going from KCLSRTQTYACSP to FSCHWAIMTRSGKVEVCNNQ, the amyloid nucleation score rises from 1.78 ± 0.21 to 5.47 ± 0.069.

Going from SFMALYLSWFSQRDYAMAGS to PVCWAAFRYTYKARMKRWSK, the amyloid nucleation score rises from 0.639 ± 0.46 to 5.06 ± 0.055.

First: PWCGRSMYSVSGKGQMWMRA
Second: NGVRLNLVNFSFGLDVMPFR
The amyloid nucleation score of the first is lower: 1.03 ± 0.4 for the first, 7.642 ± 0.071 for the second.

Compared with FGVTHVSWIQERVTADGAER, YFGFGKSGDYHHSWKRWLPR is lower in amyloid nucleation score: 0.998 ± 0.39 for the first, -0.511 ± 0.35 for the second.

YGHLRVWKIPS and LSVSKSSIYLLLMRSRGHG are within error of each other in amyloid nucleation score: 0.655 ± 0.65 for the first, 0.175 ± 0.55 for the second.

Compared with SEFPIVQLCIAWDKLCKHLY, VMRRVVKKQSWYLIKGLSM is higher in amyloid nucleation score: -0.179 ± 0.26 for the first, 0.802 ± 0.32 for the second.

Going from DLKVWAWKLILFGIMDLGGH to RLPAFSRFG, the amyloid nucleation score falls from 3.89 ± 0.048 to -0.452 ± 0.37.

ILIRLLGSRKQSWNYEIKVL and EDIGSVMGVSRAFCWQRAIC are within error of each other in amyloid nucleation score: -0.645 ± 0.37 for the first, -0.666 ± 0.79 for the second.

CTVRDSMAGIYLVDLVSCIR and GTFSCGSGEI are within error of each other in amyloid nucleation score: -0.21 ± 0.6 for the first, 0.534 ± 0.8 for the second.

VVTLDRGLGHNRKGIQLGFR and YFGSCPREKLGILYKELLVL are within error of each other in amyloid nucleation score: 0.547 ± 0.81 for the first, -0.563 ± 0.79 for the second.

RCLSYFGLKLLRVSRLFIDL and LYLIRRHESCCLPNIR are within error of each other in amyloid nucleation score: 0.034 ± 0.28 for the first, 0.039 ± 0.46 for the second.

Compared with CILLGSWLVNFYVWWSRMPI, KLGLSSIHFSGSMFVRCTFC is higher in amyloid nucleation score: -0.031 ± 1 for the first, 4.503 ± 0.041 for the second.

Compared with YLRDVYSSIFAPGMRYPQTR, VLNIFVT is higher in amyloid nucleation score: 2.22 ± 0.094 for the first, 7.248 ± 0.061 for the second.

Going from GGIFFCGIWCLVYDVSVFVA to VKHIGGISARVYKNCAASAV, the amyloid nucleation score falls from 3.43 ± 0.11 to -0.74 ± 0.63.

First: RTHCSMSYQSRVVVDWLLQK
Second: VCYNT
The amyloid nucleation score of the first is higher: 4.18 ± 0.087 for the first, 0.833 ± 0.74 for the second.

Compared with CDLLVPQRYSAGLPLPVVKE, NFGADVDRFNRVEGSSDFHG is lower in amyloid nucleation score: 1.8 ± 0.24 for the first, 0.285 ± 0.54 for the second.

Going from VSYTHTETTPGLTSLWLVLM to LKWVYLSSIALTFAPPRRLD, the amyloid nucleation score falls from 6.89 ± 0.077 to 3.63 ± 0.069.

Compared with IAKMSFAINNDIYNCRFIST, FGMYPVVGCLDRLYWMRLYA is lower in amyloid nucleation score: 2.46 ± 0.11 for the first, 0.539 ± 0.81 for the second.

STNEWF and RHGVVLSNVSKSVVSVPGAK are within error of each other in amyloid nucleation score: -1.06 ± 0.62 for the first, -0.409 ± 0.76 for the second.

FSVRRLVDHFSNSMEDPHLP and LSVAKPSSACRVKLWSPSVG are within error of each other in amyloid nucleation score: -0.342 ± 1 for the first, 0.492 ± 0.56 for the second.

DMERLAGYLQVRSKGMMRHT and LSRNYFVSVLFFSTVRMALA are within error of each other in amyloid nucleation score: 0.155 ± 0.42 for the first, -0.433 ± 0.54 for the second.

Going from VSFSSNHGFAMVRLSWSQKR to KFTLGHVNIVWNMVVYATQE, the amyloid nucleation score rises from 5.49 ± 0.058 to 8.24 ± 0.083.

GSSYNGNTRLTHVGRSVSVR and FGHNGRICKRLMEVPIFERA are within error of each other in amyloid nucleation score: -0.632 ± 0.63 for the first, -0.655 ± 0.32 for the second.

Going from DGGMR to VATWGDQVLRMRWAALRLCV, the amyloid nucleation score rises from 0.322 ± 0.5 to 5.96 ± 0.079.

First: MMKGRDKTGYPTTRGVMCDK
Second: QSKMH
The amyloid nucleation score of the first is higher: 0.232 ± 0.18 for the first, -0.321 ± 0.19 for the second.

ILYGCLLPCLHLRGHPLVLK and ELLGG are within error of each other in amyloid nucleation score: 0.42 ± 0.33 for the first, -0.343 ± 1.1 for the second.

Compared with DETYHKYDRFWLGVMSFGFY, SSQTKYQAFRVQATGVCAWM is higher in amyloid nucleation score: -0.787 ± 0.34 for the first, -0.123 ± 0.23 for the second.

YTAQRLNSTYI and CDMEHTV are within error of each other in amyloid nucleation score: -0.506 ± 1 for the first, -0.302 ± 0.61 for the second.

Going from DNKYGFMIVIYTYSAGDAEE to NLRSYIRGSLFGFCSRLWEN, the amyloid nucleation score rises from 2.62 ± 0.061 to 3.09 ± 0.08.

Going from TNWGNAVSSAMRLGSL to CYRYVGCSTYSTDQVVCAYK, the amyloid nucleation score rises from 0.438 ± 0.28 to 6.006 ± 0.051.

HLVVSMVRTLVCHFCRFDVS and VGEYLCEPATLY are within error of each other in amyloid nucleation score: 1.28 ± 0.41 for the first, -0.018 ± 1.1 for the second.

Compared with DRFQMGCLWGNNEYLLSAMA, LIIDSGYPSGS is higher in amyloid nucleation score: -1.97 ± 0.75 for the first, 0.458 ± 0.8 for the second.

First: SQSNMILYWADRF
Second: AGPAQQYMCMTCVTSVHTDP
The amyloid nucleation score of the first is lower: 5.33 ± 0.057 for the first, 8.84 ± 0.045 for the second.

NVRVRLET and NYREMLWSDIRVVS are within error of each other in amyloid nucleation score: 0.027 ± 0.27 for the first, 0.004 ± 1.1 for the second.

First: YDRKGIQCKRLAGPGQRHRS
Second: MTFAT
The amyloid nucleation score of the first is higher: 0.244 ± 0.39 for the first, -1.51 ± 1.1 for the second.

YPCPAVVCSYAA and SSQGLPDNGTRPLGWKYR are within error of each other in amyloid nucleation score: 0.705 ± 0.44 for the first, 0.417 ± 0.4 for the second.

GLRQVGA and TLLSASYGV are within error of each other in amyloid nucleation score: -0.34 ± 0.79 for the first, -0.742 ± 0.79 for the second.

First: AFSSCSMFATNRLPTSYKSD
Second: DSWLFGDINRCFWLVKCYHR
The amyloid nucleation score of the first is higher: 3.48 ± 0.084 for the first, 2.69 ± 0.075 for the second.

Going from SWCFVNGWWLYESAWEVMDS to AAAYCYRTEEW, the amyloid nucleation score rises from -0.199 ± 1.1 to 1.6 ± 0.22.

LLVKF and YNSTR are within error of each other in amyloid nucleation score: 0.641 ± 0.74 for the first, -0.082 ± 0.63 for the second.

Compared with LWVSVLFKMHAYWLGLEPNS, KLHRLTGGHYDPNCDNGPVD is higher in amyloid nucleation score: 2 ± 0.15 for the first, 3.68 ± 0.059 for the second.

Going from FARGMVRSSTGTM to RTYILYSDFGCRRCDY, the amyloid nucleation score rises from -1.88 ± 0.44 to 3.56 ± 0.1.

CERWRFI and RKVSSARNSVIATSMSNNSV are within error of each other in amyloid nucleation score: -0.02 ± 1.1 for the first, -1.61 ± 0.54 for the second.

In the case of DDIKIWFRATVHVVF, the amyloid nucleation score is reported as “inactive”.
In the case of RTGSALAHCFCDMQYVAATI, the amyloid nucleation score is reported as “inactive”.
With MARTISAGSVLFNLGSRIWH the amyloid nucleation score was “inactive”.
In the case of WLPLYMFQDQYLLKAPWISS, the amyloid nucleation score is reported as “inactive”.
For WMLIWYGPRLVYIPDLITLP, the amyloid nucleation score was “inactive”.
For HDGVNCSYRSDSIYIVENTH, the amyloid nucleation score was “inactive”.
For RMKMDNIPFEIYVFTVTLLD, the amyloid nucleation score was “inactive”.
With QCWLGTGFLRVLACAVAFLY the amyloid nucleation score was “inactive”.
In the case of PCENLVCEII, the amyloid nucleation score is reported as “inactive”.
For SHCLNLGDLRVGYKSGM, the amyloid nucleation score was “inactive”.
With CRDSPVKNQGPYLGFM the amyloid nucleation score was “inactive”.
For ASEGVGCFV, the amyloid nucleation score was “inactive”.
For VPSSEYFIVFVCRPLLIVSL, the amyloid nucleation score was “inactive”.

— the supplement of paper PMC12042874
